For four molecules, ECL signal results are on record in patent US20120058906A1 (published 2012).

The target of test [1] is T1, rHuman CD44/Fc Chimera, CF (R&D Systems Cat#3660-CD) (human, UniProt P16070 21-220).
T1 construct: Bought Fc chimera; Fc part of the bought chimera not given
The test is described as follows: ECL (MSD Multi-Spot) binding assay, antigen spotted on plate; Fab 6 nM; blank spot 191.

The target in test [2] is T2, rHuman Notch-1/Fc Chimera, CF (R&D Systems Cat#3647-TK) (human, UniProt P46531 19-526).
T2 construct: Bought Fc chimera; not shown: Fc of the bought chimera
In words: ECL (MSD multi-spot), antigen on plate, Fab 50 nM.

The target of test [3] is T3, rHuman HGF R/c-MET/Fc Chimera, CF (R&D Systems Cat#358-MT/CF) (human, UniProt P08581 25-932).
T3 construct: Bought Fc chimera; also called HGF R/Fc; not shown: Fc of the bought chimera
In words: ECL (MSD multi-spot), antigen on plate, Fab 50 nM.

The target of test [4] is T4, rHuman Erythropoietin R/Fc Chimera, CF (R&D Systems Cat#963-ER) (human, UniProt P19235 25-250).
T4 construct: Bought Fc chimera; also called EPO R/Fc; Epo R; not shown: Fc of the bought chimera
T4 sequence: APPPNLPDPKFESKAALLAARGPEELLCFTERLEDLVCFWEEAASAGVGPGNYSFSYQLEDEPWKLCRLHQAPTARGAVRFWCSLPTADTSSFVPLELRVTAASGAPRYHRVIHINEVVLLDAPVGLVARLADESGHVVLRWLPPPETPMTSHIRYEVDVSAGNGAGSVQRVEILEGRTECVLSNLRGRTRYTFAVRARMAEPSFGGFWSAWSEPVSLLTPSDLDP
The test is described as follows: ECL (MSD multi-spot), antigen on plate, Fab 50 nM.

Test [5] concerns the target T5, rHuman ErbB2/Fc Chimera, CF (R&D Systems Cat#1129-ER) (human, UniProt P04626 23-652).
T5 construct: Bought Fc chimera; also called HER2/neu; not shown: Fc of the bought chimera
In words: ECL (MSD multi-spot), antigen on plate, Fab 50 nM.

The target in test [6] is T6, rHuman IGF-1 sR (insulin-like growth factor-1 soluble receptor), CF (R&D Systems Cat#391-GR) (human, UniProt P08069 31-932).
T6 construct: Bought soluble receptor; also called IGF-R1
The test is described as follows: ECL (MSD multi-spot), antigen on plate, Fab 50 nM.

Test [7] addresses T7, rHuman CD44/Fc Chimera, CF (R&D Systems Cat#3660-CD) (human, UniProt P16070 21-220).
T7 construct: Bought Fc chimera; not shown: Fc of the bought chimera
The test is described as follows: ECL (MSD multi-spot), antigen on plate, Fab 50 nM.

Test [8] has as its target T8, rHuman P-Cadherin/Fc Chimera, CF (R&D Systems Cat#861-PC) (human, UniProt P22223 108-654).
T8 construct: Bought Fc chimera; also called CDH3; not shown: Fc of the bought chimera
The test is described as follows: ECL (MSD multi-spot), antigen on plate, Fab 50 nM.

The target of test [9] is T9, Recombinant Human DLL4 (R&D Systems Cat#1506-D4/CF) (human, UniProt Q9NR61 27-524).
T9 construct: Bought recombinant protein; also called delta-like protein 4
The test is described as follows: ECL (MSD multi-spot), antigen on plate, Fab 50 nM.

For test [10], the target named is T10, rHuman EGF R/Fc Chimera, CF (R&D Systems Cat#344-ER) (human, UniProt P00533 25-645).
T10 construct: Bought Fc chimera; also called ErbB-1; not shown: Fc of the bought chimera
The test is described as follows: ECL (MSD multi-spot), antigen on plate, Fab 50 nM.

The target of test [11] is T3, rHuman HGF R/c-MET/Fc Chimera, CF (R&D …). In words: ECL (MSD multi-spot), antigen on plate, Fab 0.4 nM.
Test [12] has as its target T4, rHuman Erythropoietin R/Fc Chimera, CF …. The test is described as follows: ECL (MSD multi-spot), antigen on plate, Fab 0.4 nM.
For test [13], the target named is T6, rHuman IGF-1 sR (insulin-like growth …). In words: ECL (MSD multi-spot), antigen on plate, Fab 0.4 nM.
Test [14] concerns the target T8, rHuman P-Cadherin/Fc Chimera, CF (R&D …). The test is described as follows: ECL (MSD multi-spot), antigen on plate, Fab 0.4 nM.
Test [15] has as its target T11, rHuman Erythropoietin R/Fc Chimera, CF (R&D Systems Cat#963-ER) (human, UniProt P19235 25-250).
T11 construct: Bought Fc chimera; also called EPO R/Fc; Epo R; Fc part of the bought chimera not given
T11 sequence: T4 sequence
The test is described as follows: ECL (MSD Multi-Spot) binding assay, antigen spotted on plate; Fab 480 nM; blank spot 362.

Test [16] has as its target T12, rHuman Notch-1/Fc Chimera, CF (R&D Systems Cat#3647-TK) (human, UniProt P46531 19-526).
T12 construct: Bought Fc chimera; Fc part of the bought chimera not given
Described as above.

Test [17] has as its target T13, Recombinant Human DLL4 (R&D Systems Cat#1506-D4/CF) (human, UniProt Q9NR61 27-524).
T13 construct: Bought recombinant protein; also called delta-like protein 4; rHuman DLL4
The description is as above.

Test [18] deals with T1, rHuman CD44/Fc Chimera, CF (R&D Systems …). Described as above.
Test [19] addresses T14, rHuman P-Cadherin/Fc Chimera, CF (R&D Systems Cat#861-PC) (human, UniProt P22223 108-654).
T14 construct: Bought Fc chimera; also called CDH3; Fc part of the bought chimera not given
Described as above.

Substitutions are numbered along the chain they refer to.
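Note: blank spot per well as comparator with Hit at signal to blank ratio of 4 or more.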

B1: Fab VH5-51_IGHD5-18*01>3_IGHJ4*01 & V3-4_IGLJ1*01 (Fab, V domains shown)
VH: EVQLVQSGAEVKKPGESLKISCKGSGYSFTSYWIGWVRQMPGKGLEWMGIIYPGDSDTRYSPSFQGQVTISADKSISTAYLQWSSLKASDTAMYYCARRGYSYGYDYFDYWGQGTLVTVSS
VL: QTVVTQEPSFSVSPGGTVTLTCGLSSGSVSTSYYPSWYQQTPGQAPRTLIYSTNTRSSGVPDRFSGSILGNKAALTITGAQADDESDYYCVLYMGSGISYVFGTGTKVTVL
notes: Tested as a Fab made in E. coli; also called IGHV5-51*03
On to B1, for which, in test [1], the ECL signal came to 547.

B2: Fab VH1-46_IGHD6-6*01_IGHJ1*01_S102A_S103P_S104F & L6_IGKJ1*01_S28P (Fab, V domains shown)
VH: QVQLVQSGAEVKKPGASVKVSCKASGYTFTSYYMHWVRQAPGQGLEWMGIINPSGGSTSYAQKFQGRVTMTRDTSTSTVYMELSSLRSEDTAVYYCAREEYAPFSAEYFQHWGQGTLVTVSS
VL: EIVLTQSPATLSLSPGERATLSCRASQPVSSYLAWYQQKPGQAPRLLIYDASNRATGIPARFSGSGSGTDFTLTISSLEPEDFAVYYCQQRSNWPPWTFGQGTKVEIKR
notes: Fab
On to B2, for which the ECL signal in test [2] is 477 ECL signal; in test [3], 183 ECL signal; in test [4], 527 ECL signal; in [5] it was 384 ECL signal; in [6] it was 355 ECL signal; in test [7] it was 340 ECL signal. Moreover, the ECL signal in [8] turned out to be 431 ECL signal; in test [9], 37700 ECL signal; in test [10] it was 328 ECL signal.

B3: Fab VH1-46_IGHD6-6*01_IGHJ1*01_S102A_S103P_S104F & L6_IGKJ1*01_S30N (Fab, V domains shown)
VH: B2 VH
VL: B2 VL with P28S, S30N
notes: Fab
For the molecule B3, the ECL signal in test [11] amounted to 120 ECL signal; in [12] it was 224 ECL signal; in [13], 141 ECL signal; in test [14] it was 111 ECL signal.

B4: Fab VH6-1_IGHD3-3*01_IGHJ4*01 & V4-3_IGLJ4*01 (Fab, V domains shown)
VH: QVQLQQSGPGLVKPSQTLSLTCAISGDSVSSNSAAWNWIRQSPSRGLEWLGRTYYRSKWYNDYAVSVKSRITINPDTSKNQFSLQLNSVTPEDTAVYYCAREYYDFWSGYYTDYFDYWGQGTLVTVSS
VL: QPVLTQPTSLSASPGASARLTCTLRSGINLGSYRIFWYQQKPESPPRYLLSYYSDSSKHQGSGVPSRFSGSKDASSNAGILVISGLQSEDEADYYCMIWHSSASFVFGGGTQLIIL
notes: Tested as a Fab made in E. coli; also called IGHV6-1*01
On to B4, for which the ECL signal in test [15] was determined as 621; in test [16] it was 545; in test [17], 1530; in test [18] it was 541; in test [19], 596.
